In patent publication US20230192896A1 (published 2023) one finds Kd data, which are given here for 21 molecules.

First the molecules themselves.
T1: FX zymogen (UniProt P00742 41-179; P00742 183-488)
T1 chain 1: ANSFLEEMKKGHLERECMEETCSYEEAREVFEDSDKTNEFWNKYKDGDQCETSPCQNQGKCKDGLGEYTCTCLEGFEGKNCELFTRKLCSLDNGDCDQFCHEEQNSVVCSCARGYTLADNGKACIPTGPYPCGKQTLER
T1 chain 2: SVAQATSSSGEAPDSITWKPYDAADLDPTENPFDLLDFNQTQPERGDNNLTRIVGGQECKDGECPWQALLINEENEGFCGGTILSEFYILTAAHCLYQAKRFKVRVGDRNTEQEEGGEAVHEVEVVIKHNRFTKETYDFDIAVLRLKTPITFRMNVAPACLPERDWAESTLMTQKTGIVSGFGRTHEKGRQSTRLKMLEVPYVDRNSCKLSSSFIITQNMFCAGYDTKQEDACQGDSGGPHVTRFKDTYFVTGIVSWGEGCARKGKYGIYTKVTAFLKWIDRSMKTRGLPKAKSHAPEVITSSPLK

B1: BIIB-12-930 (antibody, V domains shown)
VH: QVQLVQSGAEVKKPGASVKVSCKASGYTFTSYYMHWVRQAPGQGLEWMGIINPSGGSTSYAQKFQGRVTMTRDTSTSTVYMELSSLRSEDTAVYYCARVRQKATLLFQHWGQGTLVTVSS
VL: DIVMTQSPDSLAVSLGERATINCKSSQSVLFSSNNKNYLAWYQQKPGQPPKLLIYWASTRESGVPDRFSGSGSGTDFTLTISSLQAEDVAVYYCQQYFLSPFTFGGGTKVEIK
B2: BIIB-12-1305 (antibody, V domains shown)
VH: QVQLVESGGGVVQPGRSLRLSCAASGFTFSSYGMHWVRQAPGKGLEWVAVISYDGSNKYYADSVKGRFTISRDNSKNTLYLQMNSLRAEDTAVYYCAKLGGRWSSDFQHWGQGTLVTVSS
VL: EIVLTQSPATLSLSPGERATLSCRASQSVSSYLAWYQQKPGQAPRLLIYDASNRATGIPARFSGSGSGTDFTLTISSLEPEDFAVYYCQQSANWPPTFGGGTKVEIK
B3: BIIB-12-1291 (antibody, V domains shown)
VH: QVQLVQSGAEVKKPGASVKVSCKASGYTFTSYYMHWVRQAPGQGLEWMGIINPSGGSTSYAQKFQGRVTMTRDTSTSTVYMELSSLRSEDTAVYYCARSRRMWVGYFDLWGRGTLVTVSS
VL: EIVLTQSPATLSLSPGERATLSCRASQSVSSYLAWYQQKPGQAPRLLIYDASNRATGIPARFSGSGSGTDFTLTISSLEPEDFAVYYCQQRLNLPLTFGGGTKVEIK
B4: BIIB-12-927 (antibody, V domains shown)
VH: QVQLVQSGAEVKKPGASVKVSCKASGYTFTSYYMSWVRQAPGQGLEWMGIINPSGGSTSYAQKFQGRVTMTRDTSTSTVYMELSSLRSEDTAVYYCARDSGRKRYYYMDVWGKGTTVTVSS
VL: EIVMTQSPATLSVSPGERATLSCRASQSVSSNLAWYQQKPGQAPRLLIYGASTRATGIPARFSGSGSGTEFTLTISSLQSEDFAVYYCQQFNLWPFTFGGGTKVEIK
B5: BIIB-12-912 (antibody, V domains shown)
VH: QVQLVESGGGVVQPGRSLRLSCAASGFTFSSYGMHWVRQAPGKGLEWVAVISYDGSNKYYADSVKGRFTISRDNSKNTLYLQMNSLRAEDTAVYYCAKSGGRYGYDIWGQGTMVTVSS
VL: EIVMTQSPATLSVSPGERATLSCRASQSVSSNLAWYQQKPGQAPRLLIYGASTRATGIPARFSGSGSGTEFTLTISSLQSEDFAVYYCQQFHNFPPTFGGGTKVEIK
B6: BIIB-12-1304 (antibody, V domains shown)
VH: QVQLVESGGGVVQPGRSLRLSCAASGFTFSSYGMHWVRQAPGKGLEWVAVISYDGSNKYYADSVKGRFTISRDNSKNTLYLQMNSLRAEDTAVYYCAKGPGSRRFDIWGQGTMVTVSS
VL: EIVMTQSPATLSVSPGERATLSCRASQSVSSNLAWYQQKPGQAPRLLIYGASTRATGIPARFSGSGSGTEFTLTISSLQSEDFAVYYCQQANVLPLTFGGGTKVEIK
B7: BIIB-12-1290 (antibody, V domains shown)
VH: QVQLVQSGAEVKKPGASVKVSCKASGYTFTSYYMHWVRQAPGQGLEWMGIINPGGGSTSYAQKFQGRVTMTRDTSTSTVYMELSSLRSEDTAVYYCAREGGRYVRGMDVWGQGTTVTVSS
VL: DIQMTQSPSSVSASVGDRVTITCRASQGISSWLAWYQQKPGKAPKLLIYAASSLQSGVPSRFSGSGSGTDFTLTISSLQPEDFATYYCQQGFSFPFTFGGGTKVEIK
B8: BIIB-12-1307 (antibody, V domains shown)
VH: QVQLQESGPGLVKPSETLSLTCAVSGYSISSGYYWAWIRQPPGKGLEWIGSIYHSGSTYYNPSLKSRVTISVDTSKNQFSLKLSSVTAADTAVYYCARGPLPRSRGLAFDIWGQGTMVTVSS
VL: DIQLTQSPSSLSASVGDRVTITCRASQSISSFLNWYQQKPGKAPKLLIYAASSLQSGVPSRFSGSGSGTDFTLTISSLQPEDFATYYCQQTYSTPLTFGGGTKVEIK
B9: BIIB-12-1309 (antibody, V domains shown)
VH: QVQLVESGGGVVQPGRSLRLSCAASGFTFSSYGMHWVRQAPGKGLEWVAVISYDGSNKYYADSVKGRFTISRDNSKNTLYLQMNSLRAEDTAVYYCARGRYTSRYFQHWGQGTLVTVSS
VL: DIQMTQSPSSVSASVGDRVTITCRASQGISSWLAWYQQKPGKAPKLLIYAASSLQSGVPSRFSGSGSGTDFTLTISSLQPEDFATYYCQQANSLPITFGGGTKVEIK
B10: BIIB-12-918 (antibody, V domains shown)
VH: QVQLVESGGGVVQPGRSLRLSCAASGFTFSSYGMHWVRQAPGKGLEWVAVISYDGSNKYYADSVKGRFTISRDNSKNTLYLQMNSLRAEDTAVYYCAKSLGGRSFDIWGQGTMVTVSS
VL: DIQMTQSPSSLSASVGDRVTITCRASQSISRYLNWYQQKPGKAPKLLIYAASSLQSGVPSRFSGSGSGTDFTLTISSLQPEDFATYYCQQIFSLPITFGGGTKVEIK
B11: BIIB-12-895 (antibody, V domains shown)
VH: QVQLVQSGAEVKKPGASVKVSCKASGYTFTSYYMHWVRQAPGQGLEWMGIINPSGGSTSYAQKFQGRVTMTRDTSTSTVYMELSSLRSEDTAVYYCARGGGYKSRGIDYWGQGTLVTVSS
VL: DIQMTQSPSSVSASVGDRVTITCRASQGISSWLAWYQQKPGKAPKLLIYAASSLQSGVPSRFSGSGSGTDFTLTISSLQPEDFATYYCQQASSFPFTFGGGTKVEI
B12: BIIB-12-893 (antibody, V domains shown)
VH: QVQLVQSGAEVKKPGASVKVSCKASGYTFTSYYMVWVRQAPGQGLEWMGIINPSGGSTSYAQKFQGRVTMTRDTSTSTVYMELSSLRSEDTAVYYCARDPGRRQYSFYGMDVWGQGTTVTVSS
VL: DIQLTQSPSSVSASVGDRVTITCRASQGISSWLAWYQQKPGKAPKLLIYAASSLQSGVPSRFSGSGSGTDFTLTISSLQPEDFATYYCQQAAAFPFTFGGGTKVEIK
B13: BIIB-12-1312 (antibody, V domains shown)
VH: QVQLVESGGGVVQPGRSLRLSCAASGFTFSSYGMHWVRQAPGKGLEWVAVISYDGSNKYYADSVKGRFTISRDNSKNTLYLQMNSLRAEDTAVYYCAKGMGHWIDYWGQGTLVTVSS
VL: DIQMTQSPSSVSASVGDRVTITCRASQGISSWLAWYQQKPGKAPKLLIYAASSLQSGVPSRFSGSGSGTDFTLTISSLQPEDFATYYCQQASSFPPTFGGGTKVEIK
B14: BIIB-12-896 (antibody, V domains shown)
VH: QVQLVQSGAEVKKPGASVKVSCKASGYTFTSYYMHWVRQAPGQGLEWMGIINPSGGSTSYAQKFQGRVTMTRDTSTSTVYMELSSLRSEDTAVYYCARGLGQQRRGFDIWGQGTLVTVSS
VL: DIQMTQSPSSVSASVGDRVTITCRASQGISSWLAWYQQKPGKAPKLLIYAASSLQSGVPSRFSGSGSGTDFTLTISSLQPEDFATYYCQQANSFPFTFGGGTKVEIK
B15: BIIB-12-1323 (antibody, V domains shown)
VH: QVQLVQSGAEVKKPGASVKVSCKASGYTFTSYYIHWVRQAPGQGLEWMGIINPSGGSTSYAQKFQGRVTMTRDTSTSTVYMELSSLRSEDTAVYYCARGRRFPRGLDYWGQGTLVTVSS
VL: DIQMTQSPSSVSASVGDRVTITCRASQGISSWLAWYQQKPGKAPKLLIYAASSLQSGVPSRFSGSGSGTDFTLTISSLQPEDFATYYCQQANIFPFTFGGGTKVEIK
B16: BIIB-12-922 (antibody, V domains shown)
VH: QVQLVQSGAEVKKPGASVKVSCKASGYTFTSYYMHWVRQAPGQGLEWMGIINPSGGSTSYAQKFQGRVTMTRDTSTSTVYMELSSLRSEDTAVYYCARRGRIAGMWGQGTTVTVSS
VL: not shown
B17: BIIB-12-1289 (antibody, V domains shown)
VH: QVQLVQSGAEVKKPGASVKVSCKASGYTFTSYYMHWVRQAPGQGLEWMGIINPGGGSTSYAQKFQGRVTMTRDTSTSTVYMELSSLRSEDTAVYYCARGPPRTYATGSHNWFDPWGQGTLVTVSS
VL: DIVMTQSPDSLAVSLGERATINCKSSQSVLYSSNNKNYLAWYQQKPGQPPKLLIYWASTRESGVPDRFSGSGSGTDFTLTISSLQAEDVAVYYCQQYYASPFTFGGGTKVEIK
B18: BIIB-12-1333 (antibody, V domains shown)
VH: QVQLVQSGAEVKKPGASVKVSCKASGYTFTSYYMVWVRQAPGQGLEWMGIINPSGGSTSYAQKFQGRVTMTRDTSTSTVYMELSSLRSEDTAVYYCARVSRRDYPLAFDIWGQGTMVTVSS
VL: EIVMTQSPATLSVSPGERATLSCRASQSVSSNLAWYQQKPGQAPRLLIYGASTRATGIPARFSGSGSGTEFTLTISSLQSEDFAVYYCQQVNTWPTFGGGTKVEIK
B19: BIIB-12-900 (antibody, V domains shown)
VH: QVQLVQSGAEVKKPGASVKVSCKASGYTFTSYYMHWVRQAPGQGLEWMGIINPGGGSTSYAQKFQGRVTMTRDTSTSTVYMELSSLRSEDTAVYYCARSGGMYDRELGMDVWGQGTTVTVSS
VL: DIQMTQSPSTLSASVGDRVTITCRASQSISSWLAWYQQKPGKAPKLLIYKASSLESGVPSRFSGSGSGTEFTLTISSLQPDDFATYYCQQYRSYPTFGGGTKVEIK
B20: BIIB-12-898 (antibody, V domains shown)
VH: QVQLVQSGAEVKKPGASVKVSCKASGYTFTSYYMHWVRQAPGQGLEWMGIINPSGGSTTYAQKFQGRVTMTRDTSTSTVYMELSSLRSEDTAVYYCARGDRMLRAFDPWGQGTLVTVSS
VL: DIQLTQSPSTLSASVGDRVTITCRASQAISSWLAWYQQKPGKAPKLLIYDASSLESGVPSRFSGSGSGTEFTLTISSLQPDDFATYYCQQVNRFPFTFGGGTKVEIK
B21: BIIB-12-905 (antibody, V domains shown)
VH: QVQLVESGGGVVQPGRSLRLSCAASGFTFSSYGMHWVRQAPGKGLEWVAVISYDGSNKYYADSVKGRFTISRDNSKNTLYLQMNSLRAEDTAVYYCAKGGTYLDTWGQGTLVTVSS
VL: EIVLTQSPGTLSLSPGERATLSCRASQSVRSSYLAWYQQKPGQAPRLLIYGASSRATGIPDRFSGSGSGTDFTLTISRLEPEDFAVYYCQQYGRFPPTFGGGTKVEIK

This experiment deals with T1, FX zymogen. Nature of the experiment: BLI. Background: In BLI a coated tip is dipped into the sample, and binding shifts an interference pattern.
In turn, B1 gave a Kd of 56 nM.

Molecule B2 displayed a Kd of 38.8 nM.

For the molecule B3, the Kd is 42.6 nM.

In the case of B4, the Kd is 26.6 nM.

In turn, B5 had a Kd of 31.1 nM.

B6: binding was put at a Kd of 50.5 nM.

B7: the Kd came to 16.1 nM.

With B8, the Kd was 19.8 nM.

Regarding B9, the dissociation constant Kd was determined as 49.9 nM.

Take B10: the Kd came to 27.7 nM.

The molecule B11 displayed a Kd of 26.3 nM.

Consider B12, for which binding was put at a Kd of 52.2 nM.

As to B13, binding was put at a Kd of 14.7 nM.

As for B14, the Kd is 63.4 nM.

Turning to B15, the Kd amounted to 38.6 nM.

The molecule B16 registered a Kd of 38.6 nM.

For the molecule B17, binding was characterised by a dissociation constant (Kd) of 48 nM.

The molecule B18 came in with a Kd of 16 nM.

Turning to B19, the Kd was 25.8 nM.

Take B20: the Kd worked out at 18.5 nM.

B21 returned a Kd of 48.4 nM.

A word on the Kd: it is the constant that tells how readily two partners part at equilibrium.
